B1: CPEB3 Ribozyme (parent)
chain: GGGGGCCACAGCAGAAGCGUUCACGUCGCGGCCCCUGUCAGAUUCUGGUGAAUCUGCGAAUUCUGCUGU

Variants of B1 are the subject of this series. Put plainly: self-cleavage, relative activity (ratio to wild type); higher = more cleavage; co-transcriptional.
With C22G A52U, the self-cleavage was 0.146. Consider C22G A52C, for which the self-cleavage was determined as 0.191. With C22G C35U the figure was 0.208; with C22G C35G, 0.231. Next, C22G C35A: 0.169; A23C A60C: 0.327; A23C A60G: 0.828. With C22A G25A the figure was 0.162; with C22A G25U, 0.115; with C22U C24G, 0.169. Take C22U C24U: the self-cleavage came out at 0.105. In the case of C22U G31A, the self-cleavage was 0.183.

Turning to C22U G31C, the self-cleavage is 0.103.

With C22U G31U, the self-cleavage worked out at 0.116. A23C C24A: the self-cleavage came out at 0.785.

For A23C C24U, the self-cleavage was found to be 0.52. With A23C C24G the figure was 0.414; with C22G G28U, 0.182. Next, C22G G28C: 0.18; C22G A59U: 0.246. Regarding C22G A59C, the self-cleavage is 0.151. With C22G A59G the figure was 0.204. With A23C A59C, the self-cleavage turned out to be 0.69.

In the case of A23C A59G, the self-cleavage is 0.96. With C22A A52G the figure was 0.214; with C22A A52U, 0.118. Next, C22A U55A: 0.234. Next, C22A U55C: 0.113.

On to C22G U36G, for which the self-cleavage worked out at 0.143. Take C22G U36C: the self-cleavage was 0.236. With C22G U36A the figure was 0.152; with C22G A42G, 0.132. Next, C22G A42U: 0.194; C22G A42C: 0.23. Next, A23C A42G: 0.901; C22G C39U: 0.236.

Turning to C22G C39G, the self-cleavage came to 0.0932.

Regarding C22G C39A, the self-cleavage is 0.0996. As for C22A C57U, the self-cleavage is 0.137. With C22A C57G, the self-cleavage came out at 0.187. On to C22G G25A, for which the self-cleavage was found to be 0.177. As for C22G G25U, the self-cleavage is 0.146. Take C22G G25C: the self-cleavage is 0.248. Next, C22U G30C: 0.181. Next, C22G C34G: 0.177; C22G C34A: 0.194; C22G U55A: 0.116. With C22G U55G the figure was 0.14.

C22G U55C: the self-cleavage was 0.198. With C22G U61G the figure was 0.257; with C22G U61C, 0.167; with C22U G47C, 0.389. With C22U G47U the figure was 0.37; with C22U G47A, 0.279.

Regarding C22A U44G, the self-cleavage worked out at 0.237. With C22A A42C the figure was 0.251; with C22A A42G, 0.207; with C22G C29G, 0.225. Take C22G C29U: the self-cleavage stood at 0.07. With C22A G31U the figure was 0.194; with C22A G31C, 0.137; with C22A G31A, 0.174. Regarding C22A G58U, the self-cleavage was found to be 0.119. Regarding C22A G58A, the self-cleavage amounted to 0.179. As for C22U U55G, the self-cleavage is 0.169. Next, C22U U55C: 0.157; C22U U55A: 0.182.

For A23C C27U, the self-cleavage came out at 0.358. Next, A23C C27A: 0.463; C22A U36G: 0.161. With C22A U36A the figure was 0.137; with C22G C66G, 0.182; with C22G C66A, 0.135. With C22A C34A the figure was 0.206. C22U A42U: the self-cleavage worked out at 0.27. With C22U A42C, the self-cleavage stood at 0.247. With C22G U44A, the self-cleavage came to 0.158. As to C22G U44C, the self-cleavage stood at 0.22. Next, C22U: 0.337; C22A: 0.201. With C22G the figure was 0.181.

Regarding C22U G41C, the self-cleavage was found to be 0.117. With C22U G41U the figure was 0.164; with C22U G41A, 0.185; with C22G C27U, 0.142. With C22G C27A the figure was 0.149; with A23C A51G, 0.899.

A23C A51C: the self-cleavage was 0.942. For the variant A23C A51U, the self-cleavage came to 0.959. Next, C22G C32G: 0.139. Next, C22G C32A: 0.117; C22G U43A: 0.114.

Consider C22G U43G, for which the self-cleavage was 0.133. With C22G U43C the figure was 0.174. With C22U G25C, the self-cleavage is 0.153. With C22U G25A the figure was 0.164.

Consider C22U G25U, for which the self-cleavage was 0.153. As to C22U G68C, the self-cleavage is 0.517. Next, C22U G68A: 0.48. Next, C22G G47A: 0.149; C22G G47C: 0.122. For C22G G47U, the self-cleavage is 0.133. With C22U A51C the figure was 0.291; with C22U A51G, 0.314; with C22A U53G, 0.151. Next, C22A U53A: 0.208; C22A U62G: 0.112. As for C22A G28U, the self-cleavage worked out at 0.159. Turning to C22A G28C, the self-cleavage came out at 0.124. Next, C22A G28A: 0.158; C22A C35U: 0.138; C22A C35A: 0.252. For the variant C22A C35G, the self-cleavage is 0.153. With C22U C29U the figure was 0.14; with C22U C29G, 0.152; with C22G G48A, 0.226. C22G G48U: the self-cleavage amounted to 0.161. Turning to C22A U69A, the self-cleavage was determined as 0.189. Next, C22A U69G: 0.301; C22A U69C: 0.291. Next, C22A G47U: 0.18; C22A G47A: 0.217; C22G G41A: 0.147.

As for C22G G41C, the self-cleavage stood at 0.105. Next, C22G G41U: 0.178; C22G A60C: 0.133; C22G A60U: 0.0906. With C22G G37U the figure was 0.527. With C22A U61A the figure was 0.219; with C22A U61C, 0.164.

Regarding C22A U61G, the self-cleavage amounted to 0.25. With C22U G65C the figure was 0.248; with C22U G65U, 0.195. Take C22U G65A: the self-cleavage was found to be 0.216. Regarding C22U U64A, the self-cleavage came to 0.21.

In the case of C22U G28U, the self-cleavage is 0.148. Next, C22U G28A: 0.117; A23C A52G: 0.963. A23C A52U: the self-cleavage is 0.917. Next, A23C A52C: 0.921.

Take C22U C66G: the self-cleavage is 0.132. With C22U C66A the figure was 0.19; with C22G A23G, 0.217. For C22G C24A, the self-cleavage amounted to 0.129.

Regarding C22A U46C, the self-cleavage is 0.186.

For C22A U46G, the self-cleavage worked out at 0.148.

For the variant C22A U46A, the self-cleavage came to 0.181.

Regarding C22U U38G, the self-cleavage was found to be 0.141. As for C22U U38C, the self-cleavage was 0.304. Next, C22U U38A: 0.272. Turning to C22U A59C, the self-cleavage is 0.188.

As to C22U A59U, the self-cleavage was 0.201.

Consider C22U U69G, for which the self-cleavage amounted to 0.462. With C22U U69C the figure was 0.601; with C22U U69A, 0.384. Next, C22U C57A: 0.166. As for C22A G41A, the self-cleavage stood at 0.12. With C22A G41U the figure was 0.154; with C22A G41C, 0.138; with C22A U43A, 0.143. For C22A U43G, the self-cleavage is 0.181.

As to C22A C54U, the self-cleavage is 0.139. With C22A C54G, the self-cleavage worked out at 0.2. With C22U C33G the figure was 0.18.

Regarding C22U C33U, the self-cleavage stood at 0.315. For the variant C22U C33A, the self-cleavage came to 0.176. Next, C22A C45G: 0.194.

Source of the values: the RNAGym collection of RNA variant scans (doi:10.7554/elife.80360).
